Assay results reported in publication PMC3414502, “γ-Synuclein Interacts with Phospholipase Cβ2 to Modulate G Protein Activation” (PLoS ONE, 2012).

Target: T1, His6-PLCβ2 (phospholipase Cβ2) (UniProt Q00722 1-1185, CPM (thiol-reactive coumarin) on Cys side chains where printed as CPM-PLCβ2; Dabcyl where printed as PLCβ2 with DAB acceptor; unlabelled elsewhere)
T1 construct: phospholipase C β2; called the full length / whole enzyme; printed mass 133.7 kDa; One construct used CPM-labelled, Dabcyl-labelled or unlabelled; also called PLCß2; CPM-PLCβ2; source: Sf9 cells, baculovirus system, purified
T1 sequence (Q00722 whole entry): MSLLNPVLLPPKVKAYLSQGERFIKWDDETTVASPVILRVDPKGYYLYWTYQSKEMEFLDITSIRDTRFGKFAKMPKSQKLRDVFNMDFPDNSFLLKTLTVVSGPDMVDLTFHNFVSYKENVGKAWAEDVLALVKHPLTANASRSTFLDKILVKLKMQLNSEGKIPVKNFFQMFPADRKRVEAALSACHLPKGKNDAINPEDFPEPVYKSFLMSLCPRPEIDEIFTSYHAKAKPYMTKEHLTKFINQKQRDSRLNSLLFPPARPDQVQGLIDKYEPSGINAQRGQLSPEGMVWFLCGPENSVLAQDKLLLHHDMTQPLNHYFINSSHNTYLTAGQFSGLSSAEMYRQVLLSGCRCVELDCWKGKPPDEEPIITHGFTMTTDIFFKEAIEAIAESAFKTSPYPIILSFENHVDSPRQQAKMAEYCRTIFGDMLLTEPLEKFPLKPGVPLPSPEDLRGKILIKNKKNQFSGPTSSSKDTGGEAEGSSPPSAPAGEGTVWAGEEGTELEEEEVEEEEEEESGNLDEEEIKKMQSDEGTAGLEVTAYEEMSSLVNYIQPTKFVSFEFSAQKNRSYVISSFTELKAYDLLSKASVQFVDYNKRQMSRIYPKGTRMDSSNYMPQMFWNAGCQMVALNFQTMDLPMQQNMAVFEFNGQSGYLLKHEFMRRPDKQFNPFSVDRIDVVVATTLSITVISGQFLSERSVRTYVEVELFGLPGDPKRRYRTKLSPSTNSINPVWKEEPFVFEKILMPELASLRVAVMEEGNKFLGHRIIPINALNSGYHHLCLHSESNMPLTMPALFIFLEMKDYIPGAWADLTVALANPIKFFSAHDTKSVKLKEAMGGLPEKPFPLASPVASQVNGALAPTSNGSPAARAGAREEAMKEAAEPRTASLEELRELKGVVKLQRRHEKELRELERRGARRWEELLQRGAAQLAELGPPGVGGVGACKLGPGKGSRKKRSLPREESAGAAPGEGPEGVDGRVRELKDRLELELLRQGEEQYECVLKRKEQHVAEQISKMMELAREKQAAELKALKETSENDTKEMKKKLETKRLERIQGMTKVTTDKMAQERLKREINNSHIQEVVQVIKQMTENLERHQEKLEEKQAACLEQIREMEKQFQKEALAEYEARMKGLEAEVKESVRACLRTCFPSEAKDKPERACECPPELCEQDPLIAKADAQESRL
Assay: other fluorescence titration; activated Gαq and PLCß2, without γ-synuclein; which partner was labelled is not stated
Conditions: both partners purified

Kd: 0.3 ± 0.2 nM
B1: Gαq(GTPγS) (natural protein, UniProt P50148 1-359, looked up)
chain: MTLESIMACCLSEEAKEARRINDEIERQLRRDKRDARRELKLLLLGTGESGKSTFIKQMRIIHGSGYSDEDKRGFTKLVYQNIFTAMQAMIRAMDTLKIPYKYEHNKAHAQLVREVDVEKVSAFENPYVDAIKSLWNDPGIQECYDRRREYQLSDSTKYYLNDLDRVADPAYLPTQQDVLRVRVPTTGIIEYPFDLQSVIFRMVDVGGQRSERRKWIHCFENVTSIMFLVALSEYDQVLVESDNENRMEESKALFRTIITYPWFQNSSVILFLNKKDLLEEKIMYSHLVDYFPEYDGPQRDAQAAREFILKMFVDLNPDSDKIIYSHFTCATDTENIRFVFAAVKDTILQLNLKEYNLV
notes: source: Sf9 cells, co-expressed with Gβ1 and His6-Gγ2
